Data on three molecules can be found in patent publication US20250129355A1.

Data set [1] deals with T1, Upstream protein 1 (Up1) from Desulfonema ishimotonii.
T1 sequence: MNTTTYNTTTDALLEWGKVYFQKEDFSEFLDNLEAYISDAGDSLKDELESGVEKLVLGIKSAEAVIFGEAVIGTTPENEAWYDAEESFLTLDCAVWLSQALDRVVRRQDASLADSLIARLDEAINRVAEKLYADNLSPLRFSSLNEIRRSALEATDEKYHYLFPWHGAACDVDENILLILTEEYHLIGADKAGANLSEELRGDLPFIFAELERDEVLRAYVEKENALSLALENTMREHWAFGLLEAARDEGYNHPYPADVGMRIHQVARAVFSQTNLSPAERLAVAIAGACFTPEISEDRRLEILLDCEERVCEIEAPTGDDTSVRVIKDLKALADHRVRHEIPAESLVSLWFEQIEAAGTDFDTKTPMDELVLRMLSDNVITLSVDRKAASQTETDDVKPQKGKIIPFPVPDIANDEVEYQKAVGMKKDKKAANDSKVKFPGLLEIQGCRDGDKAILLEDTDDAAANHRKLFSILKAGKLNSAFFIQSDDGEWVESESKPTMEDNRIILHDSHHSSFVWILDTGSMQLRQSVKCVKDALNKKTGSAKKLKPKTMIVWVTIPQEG

Data set [2] has as its target Up1 fused to an 3×HA epitope tag (expressed from a plasmid in HEK293T cells) (Desulfonema ishimotonii). Briefly: cell-based or functional assay.
In data set [3] the test system is Up1 with D430 deleted.
Data set [4] deals with Up1 fragment amino acids 296-565.
Data set [5] deals with Up1 fragment residues 396-565.
Data set [6] deals with Up1 single alanine substitution mutants.
In data set [7] the test system is Up1-Up3 complex.
Data set [8] relates to TwinStrep-Up1Δloop mutant.
Data set [9] relates to Up1 with M427 deleted.

Regarding gRAMP(D429A/D654A)-CHAT-crRNA complex, the “Up1 cleavage in vitro (SDS-PAGE)” value in data set [1] is “disrupting the catalytic sites of gRAMP (D429A/D654A) did not”.
In turn, “gRAMP-CHAT-crRNA complex from Desulfonema ishimotonii” had an efficiency of Up1 cleavage in HEK293T cells across a panel of endogenous transcripts in data set [2] of 3 to 22%. Besides, the “Up1 cleavage in vitro (western blot)” value in data set [3] is listed as “the deletion of D430 had no effect”. For the same molecule, the “cleavage of truncated Up1” value in data set [4] was “Smaller versions of Up1 containing amino acids 296-565 retained full activity for processing”. In [5], the “cleavage of truncated Up1 in vitro (SDS-PAGE)” value is “Up1 fragments containing residues 396-565 were fully active in vitro”. Moreover, the “gRAMP-CHAT mediated protein cleavage of alanine mutants” value in [6] was “No single alanine mutation blocks CHAT protease activity”. For the same molecule, in [7], the “cleavage of Up1 within the Up1-Up3 complex (SDS-PAGE)” value is recorded as “an Up1-Up3 complex which could be cleaved by gRAMP-CHAT in the presence of target RNA”; the “proteolytic cleavage of Up1 in the purified Up1-Up3 complex (SDS-PAGE, Coomassie)” value was “only in the lane with gRAMP-CHAT (+) and target RNA (+) the Up1 band becomes weaker and two new bands appear, at about 50 kDa and just above 15 kDa; much Up1 stays uncleaved; the Up3 band at 25 kDa is unchanged; no new bands without gRAMP-CHAT or with gRAMP-CHAT but without target RNA”. The “Up1 cleavage in vitro (western blot)” value in [8] is recorded as “truncating the loop by four residues, or deleting M427 alone, prevented in vitro cleavage”. Moreover, in data set [9], the “Up1 cleavage in vitro (western blot)” value was “truncating the loop by four residues, or deleting M427 alone, prevented in vitro cleavage”. For the same molecule, in data set [1], the “Up1 cleavage in vitro (SDS-PAGE)” value is “the largest protein, Up1, is specifically cleaved in response to target RNA”; the “cleavage of the protein substrate in vitro (SDS-PAGE)” value was “the substrate is neighboring protein WP_124327587.1 (FIG. 2), that cleavage of the substrate is dependent on presence of a target RNA”; the “substrate turnover in vitro” value is “cleaving 100-fold excess of Up1 substrate in minutes”.

B1: gRAMP-CHAT(H615A/C658A)-crRNA complex (enzyme, part only; not given: gRAMP, His tag, crRNA)
chain, part: MSNPIRDIQDRLKTAKFDNKDDMMNLASSLYKYEKQLMDSSEATLCQQGLSNRPNSFSQLSQFRDSDIQSKAGGQTGKFWQNEYEACKNFQTHKERRETLEQIIRFLQNGAEEKDADDLLLKTLARAYFHRGLLYRPKGFSVPARKVEAMKKAIAYCEIILDKNEEESEALRIWLYAAMELRRCGEEYPENFAEKLFYLANDGFISELYDIRLFLEYTEREEDNNFLDMILQENQDRERLFELCLYKARACFHLNQLNDVRIYGESAIDNAPGAFADPFWDELVEFIRMLRNKKSELWKEIAIKAWDKCREKEMKVGNNIYLSWYWARQRELYDLAFMAQDGIEKKTRIADSLKSRTTLRIQELNELRKDAHRKQNRRLEDKLDRIIEQENEARDGAYLRRNPPCFTGGKREEIPFARLPQNWIAVHFYLNELESHEGGKGGHALIYDPQKAEKDQWQDKSFDYKELHRKFLEWQENYILNEEGSADFLVTLCREIEKAMPFLFKSEVIPEDRPVLWIPHGFLHRLPLHAAMKSGNNSNIEIFWERHASRYLPAWHLFDPAPYSREESSTLLKNFEEYDFQNLENGEIEVYAPSSPKKVKEAIRENPAILLLLCAGEADMTNPFRSCLKLKNKDMTIFDLLTVEDVRLSGSRILLGAAESDMVPPLEFSVDEHLSVSGAFLSHKAGEIVAGLWTVDSEKVDECYSYLVEEKDFLRNLQEWQMAETENFRSENDSSLFYKIAPFRIIGFPAE
As for B1, the “Up1 cleavage in vitro (SDS-PAGE)” value in data set [1] was “mutating the catalytic residues of the CHAT protease (H615A/C658A) abolished activity”.
